The test system of the data set is Bacillus subtilis. Kind of data set: cleaved RNA product abundance (RNA/gDNA barcode ratio) relative to median wild-type variant (ratio to wild type); higher = more accumulation of the downstream cleavage product. The settings on record: cleavage site: cggR-gapA (positions -7 to +36 mutated). In outline: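 In LB at 37°C, B. subtilis cultures went from OD600 0.0003 to 0.3. Their chromosomes held barcoded reporter mRNAs, truncated aprE or tetM, with RNase Y cleavage-site windows mutagenized via oligos at a 9% error rate. Cleaved RNA, chosen by gel, was reverse transcribed and barcode-sequenced alongside genomic DNA barcodes with UMI collapsing, giving a per-construct RNA:gDNA ratio scaled to the median construct with the unmutated site. This scaled ratio is termed cleaved product abundance.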

Setting [1] is: experiment (reporter, strain, medium): exp 2b: truncated aprE reporter, strain BJT200.
[2] abbreviates: experiment (reporter, strain, medium): exp 4a: truncated aprE reporter, strain BJT201 with 2% xylose (RNase J1 expressed).
The mark [3] stands for this setting: experiment (reporter, strain, medium): exp 6: tetM reporter, strain 168.

Here are results for 55 sequences from the supplement of paper PMC11780869.

In the case of “ACAGACGAAGGAGCCGCAAAGATGTTATTAAGGGATGAATAATCCCTCAATATAAATACCTCTCACTTATTTAAA”, the “cleaved RNA product abundance” value under setting [1] is 0.71. For the sequence “ACAGACGAAGGAGCCGCAAAGATGTTATTAAGGGATGAATAATCCCTCAATATAAATATCTCTCACTTATTTAAA”, the “cleaved RNA product abundance” value came out at 0.938 under setting [1], 0.996 under setting [2] and 1.01 under setting [3]. As for “ACAGACGAAGGAGCCGCAAAGATGTTATTAAGGGATGAATAATCCCTCAATATACATATCTCTCACTTATTTAAA”, the “cleaved RNA product abundance” value under setting [2] came to 0.483. The same measure, in the same setting: with “ACAGACGAAGGAGCCGCAAAGATGTTATTAAGGGATGAATAATCCCTCAATATATATATCTCTCACTTATTTAAA” the figure was 0.975; with “ACAGACGAAGGAGCCGCAAAGATGTTATTAAGGGATGAATAATCCCTCAATCTAAATATCTCTCACTTATTTAAA”, 0.0528. With “ACAGACGAAGGAGCCGCAAAGATGTTATTAAGGGATGAATAATCCCTCACTATAAATATCTCTCACTTATTTAAA”, the “cleaved RNA product abundance” value under setting [1] is 0.166. Regarding “ACAGACGAAGGAGCCGCAAAGATGTTATTAAGGGATGAATAATCCCTCATTATAAATATCTCTCACTTATTTAAA”, under setting [2], the “cleaved RNA product abundance” value stood at 0.411. As to “ACAGACGAAGGAGCCGCAAAGATGTTATTAAGGGATGAATAATCCCTCGATATAAATATCTCTCACTTATTTAAA”, under setting [1], the “cleaved RNA product abundance” value was 0.352. For the sequence “ACAGACGAAGGAGCCGCAAAGATGTTATTAAGGGATGAATAATCCCTCTATATAAATATCTCTCACTTATTTAAA”, under setting [2], the “cleaved RNA product abundance” value came to 0.447. Same read-out and setting: with “ACAGACGAAGGAGCCGCAAAGATGTTATTAAGGGATGAATAATCCCTGAATATAAATATCTCTCACTTATTTAAA” the figure was 0.628. On to “ACAGACGAAGGAGCCGCAAAGATGTTATTAAGGGATGAATAATCCGTCAATATAAATATCTCTCACTTATTTAAA”, for which the “cleaved RNA product abundance” value came out at 0.113 under setting [1] and 0.2 under setting [2]. For “ACAGACGAAGGAGCCGCAAAGATGTTATTAAGGGATGAATAATCCTTCAATATAAATATCTCTCACTTATTTAAA”, in that order: 0.366 and 0.613.

Turning to “ACAGACGAAGGAGCCGCAAAGATGTTATTAAGGGATGAATAATCTCTCAATATAAATATCTCTCACTTATTTAAA”, the “cleaved RNA product abundance” value under setting [2] was 0.874. Turning to “ACAGACGAAGGAGCCGCAAAGATGTTATTAAGGGATGAATAATGCCTCAATATAAATATCTCTCACTTATTTAAA”, the “cleaved RNA product abundance” value under setting [2] came out at 0.186. As to “ACAGACGAAGGAGCCGCAAAGATGTTATTAAGGGATGAATAATTCCTCAATATAAATATCTCTCACTTATTTAAA”, under setting [2], the “cleaved RNA product abundance” value amounted to 0.89. Consider “ACAGACGAAGGAGCCGCAAAGATGTTATTAAGGGATGAATACTCCCTCAATATAAATATCTCTCACTTATTTAAA”, for which the “cleaved RNA product abundance” value under setting [1] stood at 0.648. As for “ACAGACGAAGGAGCCGCAAAGATGTTATTAAGGGATGAATATTCCCTCAATATAAATATCTCTCACTTATTTAAA”, the “cleaved RNA product abundance” value reads like this: under setting [1], 0.623; under setting [2], 0.556. For the sequence “ACAGACGAAGGAGCCGCAAAGATGTTATTAAGGGATGAATGATCCCTCAATATAAATATCTCTCACTTATTTAAA”, under setting [2], the “cleaved RNA product abundance” value is 0.51. As to “ACAGACGAAGGAGCCGCAAAGATGTTATTAAGGGATGCATAATCCCTCAATATAAATATCTCTCACTTATTTAAA”, the “cleaved RNA product abundance” value under setting [1] stood at 0.859 and the “cleaved RNA product abundance” value under setting [2] came to 1.1. As for “ACAGACGAAGGAGCCGCAAAGATGTTATTAAGGGATTAATAATCCCTCAATATAAATATCTCTCACTTATTTAAA”, under setting [2], the “cleaved RNA product abundance” value worked out at 0.703.

“ACAGACGAAGGAGCCGCAAAGATGTTATTAAGGGGTGAATAATCCCTCAATATAAATATCTCTCACTTATTTAAA”: under setting [1], the “cleaved RNA product abundance” value was 0.656.

Take “ACAGACGAAGGAGCCGCAAAGATGTTATTAAGGGTTGAATAATCCCTCAATATAAATATCTCTCACTTATTTAAA”: the “cleaved RNA product abundance” value under setting [1] amounted to 0.251. Regarding “ACAGACGAAGGAGCCGCAAAGATGTTATTAAGGTATGAATAATCCCTCAATATAAATATCTCTCACTTATTTAAA”, the “cleaved RNA product abundance” value under setting [2] was found to be 0.161. In the case of “ACAGACGAAGGAGCCGCAAAGATGTTATTAAGTGATGAATAATCCCTCAATATAAATATCTCTCACTTATTTAAA”, the “cleaved RNA product abundance” value came to 0.1 under setting [1] and 0.11 under setting [2]. For “ACAGACGAAGGAGCCGCAAAGATGTTATTAATGGATGAATAATCCCTCAATATAAATATCTCTCACTTATTTAAA”, in that order: 0.131 and 0.135. The corresponding values for “ACAGACGAAGGAGCCGCAAAGATGTTATTACGGGATGAATAATCCCTCAATATAAATATCTCTCACTTATTTAAA” are 0.369 and 0.401. Regarding “ACAGACGAAGGAGCCGCAAAGATGTTATTATGGGATGAATAATCCCTCAATATAAATATCTCTCACTTATTTAAA”, the “cleaved RNA product abundance” value under setting [2] is 0.343. Regarding “ACAGACGAAGGAGCCGCAAAGATTTTATTAAGGGATGAATAATCCCTCAATATAAATATCTCTCACTTATTTAAA”, the “cleaved RNA product abundance” value is, setting by setting: under setting [1], 1.07; under setting [2], 0.974. Consider “ACAGACGAAGGAGCCGCAAAGCAATTATTAAGGGATGAATAATCCCTCAATATAAATATCTCTCACTTATTTAAA”, for which the “cleaved RNA product abundance” value under setting [2] was 0.718. Same read-out and setting: then “ACAGACGAAGGAGCCGCAAAGCAGTTAATAAGGGATGAATAATCCCTCAATATAAATATCTCTCACTTATTTAAA”, with 0.298.

“ACAGACGAAGGAGCCGCAAAGCAGTTATTAAAGGATGAATAATCCCTCAATATAAATATCTCTCACTTATTTAAA”: the “cleaved RNA product abundance” value under setting [1] was 0.136. Consider “ACAGACGAAGGAGCCGCAAAGCAGTTATTAAGGAATGAATAATCCCTCAATATAAATATCTCTCACTTATTTAAA”, for which the “cleaved RNA product abundance” value under setting [2] is 0.0974. For the sequence “ACAGACGAAGGAGCCGCAAAGCAGTTATTAAGGGAAGAATAATCCCTCAATATAAATATCTCTCACTTATTTAAA”, under setting [2], the “cleaved RNA product abundance” value came to 0.561. On the same count and under the same terms, then “ACAGACGAAGGAGCCGCAAAGCAGTTATTAAGGGATAAATAATCCCTCAATATAAATATCTCTCACTTATTTAAA”, with 0.625.

On to “ACAGACGAAGGAGCCGCAAAGCAGTTATTAAGGGATGAAAAATCCCTCAATATAAATATCTCTCACTTATTTAAA”, for which the “cleaved RNA product abundance” value under setting [2] came out at 0.687. On the same count and under the same terms, with “ACAGACGAAGGAGCCGCAAAGCAGTTATTAAGGGATGAATAACCCCTCAATATAAATATCTCTCACTTATTTAAA” the figure was 0.275; with “ACAGACGAAGGAGCCGCAAAGCAGTTATTAAGGGATGAATAATCCATCAATATAAATATCTCTCACTTATTTAAA”, 0.172; with “ACAGACGAAGGAGCCGCAAAGCAGTTATTAAGGGATGAATAATCCCTAAATATAAATATCTCTCACTTATTTAAA”, 0.591. Still for that read-out and setting: with “ACAGACGAAGGAGCCGCAAAGCAGTTATTAAGGGATGAATAATCCCTCAAAATAAATATCTCTCACTTATTTAAA” the figure was 0.468; with “ACAGACGAAGGAGCCGCAAAGCAGTTATTAAGGGATGAATAATCCCTCAACATAAATATCTCTCACTTATTTAAA”, 0.118. For “ACAGACGAAGGAGCCGCAAAGCAGTTATTAAGGGATGAATAATCCCTCAATATAAATATCTCTCACTTATTTAAA”, the “cleaved RNA product abundance” value under setting [1] was 0.905, the “cleaved RNA product abundance” value under setting [2] came out at 0.958 and the “cleaved RNA product abundance” value under setting [3] is 0.944. For the sequence “ACAGACGAAGGAGCCGCAAAGCAGTTATTAAGGGATGAATAATCCCTCAATATATATATCTCTCACTTATTTAAA”, under setting [2], the “cleaved RNA product abundance” value was 0.687.

Consider “ACAGACGAAGGAGCCGCAAAGCAGTTATTAAGGGATGAATAATCCTTCAATATAAATATCTCTCACTTATTTAAA”, for which the “cleaved RNA product abundance” value under setting [2] came to 0.526. As to “ACAGACGAAGGAGCCGCAAAGCAGTTATTAAGGGATGAATAATCGCTCAATATAAATATCTCTCACTTATTTAAA”, under setting [1], the “cleaved RNA product abundance” value was 0.083. In the case of “ACAGACGAAGGAGCCGCAAAGCAGTTATTAAGGGATGAATATTCCCTCAATATAAATATCTCTCACTTATTTAAA”, the “cleaved RNA product abundance” value was determined as 0.832 under setting [1] and 0.898 under setting [2]. For “ACAGACGAAGGAGCCGCAAAGCAGTTATTAAGGGATGAGTAATCCCTCAATATAAATATCTCTCACTTATTTAAA”, the “cleaved RNA product abundance” value under setting [2] was 0.658.

Regarding “ACAGACGAAGGAGCCGCAAAGCAGTTATTAAGGGATGCATAATCCCTCAATATAAATATCTCTCACTTATTTAAA”, the “cleaved RNA product abundance” value under setting [1] amounted to 0.0725. With “ACAGACGAAGGAGCCGCAAAGCAGTTATTAAGGTATGAATAATCCCTCAATATAAATATCTCTCACTTATTTAAA”, the “cleaved RNA product abundance” value under setting [2] is 0.0937.

In the case of “ACAGACGAAGGAGCCGCAAAGCAGTTATTAAGTGATGAATAATCCCTCAATATAAATATCTCTCACTTATTTAAA”, the “cleaved RNA product abundance” value under setting [2] amounted to 0.0809. On the same count and under the same terms, with “ACAGACGAAGGAGCCGCAAAGCAGTTATTAATGGATGAATAATCCCTCAATATAAATATCTCTCACTTATTTAAA” the figure was 0.171; with “ACAGACGAAGGAGCCGCAAAGCATTTATTAAGGGATGAATAATCCCTCAATATAAATATCTCTCACTTATTTAAA”, 0.256; with “ACAGACGAAGGAGCCGCAAAGGAATTATTAAGGGATGAATAATCCCTCAATATAAATATCTCTCACTTATTTAAA”, 0.671.

As for “ACAGACGAAGGAGCCGCAAAGGACTTATTAAGGGATGAATAATCCCTCAATATAAATATCTCTCACTTATTTAAA”, the “cleaved RNA product abundance” value under setting [2] worked out at 0.173. Turning to “ACAGACGAAGGAGCCGCAAAGGAGCTATTAAGGGATGAATAATCCCTCAATATAAATATCTCTCACTTATTTAAA”, the “cleaved RNA product abundance” value under setting [1] amounted to 0.502.

Turning to “ACAGACGAAGGAGCCGCAAAGGAGTTAATAAGGGATGAATAATCCCTCAATATAAATATCTCTCACTTATTTAAA”, the “cleaved RNA product abundance” value under setting [1] was found to be 0.34 and the “cleaved RNA product abundance” value under setting [2] worked out at 0.436.
